According to patent US20240124575A1 (SIMCERE ZAIMING PHARMACEUTICAL, published 2024):
Where two headings read alike, the source gives them in different places. Values belong to the binder of their own block, whether it stands above or below them.

Key:
[1] = molecular target: T1, human CD33-C2-his (human, UniProt P20138 136-260); assay: ELISA on coated human CD33-C2-his
T1 construct: expressed in HEK293E; also called hCD33-C2-his; human CD33 protein C2-domain; not shown: His tag

[2] = molecular target: T2, human CD33-His (extracellular domain Asp 18-His 259) (human, UniProt P20138 18-259); assay: competitive ELISA vs coated S006-NB146-40 2ug/mL; soluble 25ug/ml
T2 construct: range 18-259; bought protein; also called hCD33-his; human CD33 protein; not shown: His tag
T2 sequence (P20138 18-259 limits assumed): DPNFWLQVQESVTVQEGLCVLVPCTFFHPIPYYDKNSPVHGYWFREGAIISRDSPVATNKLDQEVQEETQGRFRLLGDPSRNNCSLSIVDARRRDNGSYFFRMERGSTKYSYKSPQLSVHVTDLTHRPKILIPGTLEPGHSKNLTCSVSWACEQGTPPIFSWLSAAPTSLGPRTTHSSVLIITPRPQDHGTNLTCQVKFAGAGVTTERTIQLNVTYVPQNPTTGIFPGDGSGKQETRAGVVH
Description: (§1) VHH antibodies and control antibodies with known epitopes were subjected to epitope classification with competitive ELISA. ELISA plates were coated with 2 μg/mL antibodies according to the method in Example 5.1; the human CD33-his protein was subjected to a gradient dilution from 30 μg/mL, and EC80 values (Tables 26-27) were calculated. ELISA plates were coated with 2 μg/mL antibodies; after 25 µg/mL of antibodies to be tested were added, a human CD33-his protein having an EC80 concentration corresponding to each of the antibodies to be tested was then added for incubation for 2 h. The plates were washed 5 times with PBS, then HRP-labeled anti-His antibodies (purchased from GenScript, Cat. No. A00612) were added for incubation for 1 h, and the plates were washed 5 times. A TMB substrate was added at 50 μL/well and incubated at room temperature for 10 min, then a stop solution (1.0 M HCl) was added at 50 μL/well. OD_{450 nm} values were read using an ELISA plate reader (Insight, purchased from PerkinElmer), and the competition rate between the antibodies was calculated according to the OD_{450 nm} values using a formula. The results are shown in FIGS. 12A-12B, the higher the value of the competition rate, the closer the epitopes to which two antibodies bind.

[3] = molecular target: T2, human CD33-His (extracellular domain …); assay: competitive ELISA vs coated S006-NB146-17 2ug/mL; soluble 25ug/ml
Description: as §1

[4] = molecular target: T1, human CD33-C2-his; assay: ELISA on coated human CD33-C2-his; remark: listed apart in the source
Description: (§2) Plates were coated with human CD33-V-his (membrane distal end) and human CD33-C2-his (membrane proximal end), respectively, according to the ELISA method in Example 8. The VHH humanized antibodies were classified based on the membrane distal end and the membrane proximal end, as shown in FIGS. 20A-20J and Table 44, which allowed the classification of the VHH humanized antibodies into the following classes: […]

[5] = molecular target: T1, human CD33-C2-his; assay: ELISA on coated human CD33-C2-his; remark: listed apart in the source
Description: as §2

[6] = molecular target: T3, monkey CD33-His protein (monkey); assay: ELISA on coated monkey CD33-his
T3 construct: also called monkey CD33 protein

[7] = molecular target: T4, human CD33-his protein (human, UniProt P20138 18-259); assay: competition ELISA, coated human CD33-his, vs Biotin-C33B904 at EC80; antibody 0.98 nM
T4 construct: range 18-259; bought protein; also called hCD33-his; recombinant human CD33-his; not shown: His tag
T4 sequence (P20138 18-259 limits assumed): as above
Description: (§3) The plate was sealed with a plastic film and incubated at 4° C. overnight, washed twice with PBS the next day, and a blocking solution [PBS+2% (w/w) BSA] was added for blocking at room temperature for 2 h. The blocking solution was discarded, and VHH-Fc antibody or negative control antibody serially diluted from 100 nM was added at 50 μL/well. After incubation at 37° C. for 2 h, the plate was washed 3 times with PBS. A secondary antibody labeled with HRP (horseradish peroxidase) (purchased from Sigma, Cat. No. A0170) was added. After incubation for 1 h at 37° C., the plate was washed 5 times with PBS. A TMB substrate was added at 50 μL/well. After incubation at room temperature for 10 min, a stop solution (1.0 N HCl) was added at 50 μL/well. The OD450 nm values were read on an ELISA plate reader (Multimode Plate Reader, EnSight, purchased from Perkin Elmer). The assay results for the binding of the VHH-Fc to hCD33-his by ELISA are shown in FIGS. 7A and 7B and Tables 11 and 12. […] The IgG control was hIgG1, and the data in the table are OD450 nm values.
(§4) ELISA plates were coated with 2 μg/mL human CD33-his protein according to the method in Example 5.1; the Biotin-C331B904 antibody was subjected to a gradient dilution from 15 μg/mL, and EC80 values (0.18 μg/mL) were calculated. […] OD_{450 nm} values were read using an ELISA plate reader (Insight, purchased from PerkinElmer). […]

[8] = molecular target: T4, human CD33-his protein; assay: competition ELISA, coated human CD33-his, vs Biotin-C33B904 at EC80; antibody 0 nM (no competitor)
Description: (§5) ELISA plates were coated with 2 μg/mL human CD33-his protein according to the method in Example 5.1; the Biotin-C331B904 antibody was subjected to a gradient dilution from 15 μg/mL, and EC80 values (0.18 μg/mL) were calculated. ELISA plates were coated with 2 μg/mL human CD33-his protein; starting from 40 μg/mL, the VHH antibodies to be tested were diluted in a 1:2 dilution ratio to obtain seven concentrations and added to the ELISA plates, and then Biotin-C331904 antibodies with the EC80 concentrations were added for incubation for 2 h. The plates were washed 5 times with PBS and then […] (purchased from Sigma, Cat. No. S2438) were added for incubation for 1 h, and the plates were washed 5 times. A TMB substrate was added at 50 μL/well and incubated at room temperature for 10 min, then a stop solution (1.0 M HCl) was added at 50 μL/well. OD_{450 nm} values were read using an ELISA plate reader (Insight, purchased from PerkinElmer). Then, analysis was performed by software (GraphPad Prism8), and data were fitted for curve plotting. The results are shown in FIGS. 13A-13B and Tables 28 and 29.

[9] = molecular target: T4, human CD33-his protein; assay: competition ELISA, coated human CD33-his, vs Biotin-C33B904 at EC80; antibody 500 nM
Description: as §3, §4

[10] = molecular target: T4, human CD33-his protein; assay: competition ELISA, coated human CD33-his, vs Biotin-C33B904 at EC80; antibody 250.00 nM
Description: as §5

T1 sequence (P20138 other isoform, or with tags, fused parts or gaps limits assumed): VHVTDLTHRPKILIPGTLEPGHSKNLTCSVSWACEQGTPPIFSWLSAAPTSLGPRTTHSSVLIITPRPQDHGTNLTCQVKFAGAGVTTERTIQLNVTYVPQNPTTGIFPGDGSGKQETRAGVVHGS

EC50 (read off the curve) [1]: ~300 pM
inhibition rate [2]: -5%
inhibition rate [3]: 1%
EC50 (read off the curve) [4]: ~100 pM
EC50 (read off the curve) [5]: ~200 pM
EC50 (read off the curve) [6]: ~100 pM
B1: C33B904 hIgG1 (antibody, V domains shown)
VH: EVQLVESGGGLVQPGRSLRLSCAASGFTFDDYAMHWVRQAPGKGLEWVSGIGWSGGSIVYADSVKGRFTISRDNAKNSLYLQMNSLRAEDTALYYCAKDSPYGDFFDYWGQGTLVTVSS
VL: DIVMTQSPDSLAVSLGERATINCKSSQTVFYSSNNKNYLAWYQQKPGQPPKLLISWASTRKSGVPDRFSGSGSGTDFTLTVSSLQAEDVAVYYCQHYYSTPYTFGQGTKLEIKR
notes: intact human IgG1; variable regions from US20190382481A1; also called C33B3904; C331B904

OD450 (Biotin-C33B904 signal) [7]: 2.31
OD450 (Biotin-C33B904 signal) [8]: 2.33
OD450 (Biotin-C33B904 signal) [9]: 0.08
OD450 (Biotin-C33B904 signal) [10]: 0.1
B2: C33B904 (antibody, human IgG1, kappa, V domains shown)
VH: B1 VH
VL: B1 VL
notes: control antibody, intact human IgG1 form; variable regions from US20190382481A1; also called C33B904 hIgG1; C331B904
